These results are taken from paper PMC6446905 (Science (New York, N.Y.), 2018).

What all share (test): cryo-EM structure
The target in one assay is TAF11 (human (endogenous in HeLa), UniProt Q15544 1-211).
In a further assay the target is T1, TAF3 (human (endogenous in HeLa), UniProt Q5VWG9 1-929).
T1 sequence (looked up): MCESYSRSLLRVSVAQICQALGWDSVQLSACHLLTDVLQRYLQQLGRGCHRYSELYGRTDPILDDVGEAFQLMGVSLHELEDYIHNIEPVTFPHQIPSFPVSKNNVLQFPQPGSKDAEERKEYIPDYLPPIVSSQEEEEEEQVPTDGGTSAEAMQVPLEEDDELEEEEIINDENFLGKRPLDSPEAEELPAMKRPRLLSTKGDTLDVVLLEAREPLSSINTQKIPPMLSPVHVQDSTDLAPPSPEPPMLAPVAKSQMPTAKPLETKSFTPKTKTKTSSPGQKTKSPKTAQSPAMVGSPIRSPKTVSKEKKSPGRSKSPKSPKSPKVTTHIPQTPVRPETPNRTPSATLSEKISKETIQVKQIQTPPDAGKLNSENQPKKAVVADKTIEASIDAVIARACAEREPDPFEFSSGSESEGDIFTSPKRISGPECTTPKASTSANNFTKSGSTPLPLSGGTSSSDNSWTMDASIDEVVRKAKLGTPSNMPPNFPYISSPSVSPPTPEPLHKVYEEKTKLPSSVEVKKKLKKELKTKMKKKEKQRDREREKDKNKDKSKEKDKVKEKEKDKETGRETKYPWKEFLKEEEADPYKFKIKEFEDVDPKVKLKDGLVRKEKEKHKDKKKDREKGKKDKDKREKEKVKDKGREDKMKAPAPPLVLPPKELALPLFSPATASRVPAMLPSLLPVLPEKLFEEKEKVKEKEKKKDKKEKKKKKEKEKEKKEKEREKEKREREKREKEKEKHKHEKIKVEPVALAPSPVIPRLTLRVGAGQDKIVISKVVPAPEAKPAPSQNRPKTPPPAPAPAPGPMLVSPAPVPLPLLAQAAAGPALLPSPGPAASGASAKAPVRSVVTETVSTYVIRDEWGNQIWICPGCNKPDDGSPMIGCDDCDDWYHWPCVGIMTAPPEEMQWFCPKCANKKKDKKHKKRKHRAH

For a further assay, the target named is T2, TAF8 (human (endogenous in HeLa), UniProt Q7Z7C8 1-310).
T2 sequence (looked up): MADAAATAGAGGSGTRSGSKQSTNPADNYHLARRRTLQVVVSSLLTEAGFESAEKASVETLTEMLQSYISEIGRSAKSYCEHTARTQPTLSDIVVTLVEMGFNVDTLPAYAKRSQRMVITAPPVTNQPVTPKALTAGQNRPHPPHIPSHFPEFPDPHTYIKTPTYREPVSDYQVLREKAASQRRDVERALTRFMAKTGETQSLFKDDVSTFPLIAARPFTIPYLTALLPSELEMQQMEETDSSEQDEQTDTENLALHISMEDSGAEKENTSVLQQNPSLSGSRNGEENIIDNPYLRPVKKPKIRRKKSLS

Sequence of TAF11 (Q15544 whole entry): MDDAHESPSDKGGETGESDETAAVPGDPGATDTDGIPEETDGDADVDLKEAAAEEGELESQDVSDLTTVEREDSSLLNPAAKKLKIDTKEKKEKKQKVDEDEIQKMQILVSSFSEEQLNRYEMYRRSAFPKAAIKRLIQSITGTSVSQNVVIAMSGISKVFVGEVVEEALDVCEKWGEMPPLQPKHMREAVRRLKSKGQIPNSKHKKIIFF

B1: TAF13 (natural protein, human (endogenous in HeLa), UniProt Q15543 1-124, looked up)
chain: MADEEEDPTFEEENEEIGGGAEGGQGKRKRLFSKELRCMMYGFGDDQNPYTESVDILEDLVIEFITEMTHKAMSIGRQGRVQVEDIVFLIRKDPRKFARVKDLLTMNEELKRARKAFDEANYGS
As to B1, in the assay with TAF11, the binding result was “binds”.

B2: TAF10 (natural protein)
chain: not shown
Turning to B2, the binding result with TAF3 and with TAF8 was “binds” throughout.
